Source: patent US12303551B2, “Cellular immunotherapy compositions and uses thereof” (CERO THERPEUTICS HOLDINGS, INC., priority 2018, dated 2025)

Assays:
[1] = test system: SCC152 cells; assay: Elimination of GFP-expressing SCC152 target cells over time (quantification and time lapse imaging); type: cell-based; conditions: for number of SCC152 cells in time lapse imaging: 96-well co-culture, CD8+/E7 TCR + CD4+/CER + SCC152 1:1:1, compared to control; for elimination of SCC152 cells, time lapse imaging: 0 to 36 hrs, compared to the control; for elimination of SCC152 cells (GFP quantification): by 36 hrs, 1:1:1 ratio (CD8:CD4:target cell), compared to control
Procedure, shortened: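 GFP-labelled SCC152 (HPV16+) target cells were co-cultured at 1:1:1 with CD8+ T cells carrying an HPV16 E7 TCR and with CD4+ T cells transduced with a chimeric CER or a control. Remaining target cells were counted by fluorescence imaging and automated software at 0, 12, 24, 36 h or 0, 24, 48 h.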

[2] = test system: SCC152 cells; assay: Magnitude breadth analysis of phagocytosis by CER type (pHrodo red / CELLTRACE violet microscopy); type: cell-based; conditions: 8 hours co-culture with SCC152, CD8+/E7 TCR 1:1
Protocol: Top image is an enlargement of a cell in the lower left image showing a SCC152 cell engulfed by CER126-transduced CD4+ T cell. […] White arrow indicates CD8+ T cell transduced with E7-specific TCR and that is pHrodo Red negative (lower left panel of FIG. 60B). Software rendition of phagocytosis (lower right panel of FIG. 60B).
Various CER-modified CD4+ T cells were also evaluated for breadth of response to determine whether a particular CER confers a broad phagocytic response of low magnitude (e.g., 10% engulfment in 90% of cells) or a less frequent but strong phagocytic response (e.g., 90% engulfment in 10% of cells) in the host cells. CD8+ T cells were transduced with HPV16 E7 specific TCR as described in Example 1. CD4+ T cells were transduced with lentiviral vectors comprising a CER21, CER27, CER104, CER116, or CER117 nucleic acid. Mock-transduced (vector alone) CD4+ T cell were used as control. CD4+/CER+ and CD8+/E7 TCR+ T cells were stained with CELLTRACE violet. HPV16 E7+ head and neck squamous cell carcinoma cells (SCC152) were stained with pHrodo red. HPV16 E7 TCR transduced CD8+ T cells and selected CER transduced CD4+ T cells were mixed at a 1:1 ratio and co-cultured with SCC152 cells at a 1:1 ratio for 8 hours. Phagocytosis of target SCC152 cells by CER-transduced CD4+ T cells was analyzed by fluorescence microscopy. […] The horizontal axis represents the % area of CER-transduced CD4+ T cells having engulfment or % area of the CER-transduced CD4+ T cells taken up by target SCC152 cells. This measure was rarely above 40% across CER types tested. The vertical axis represents the proportion of CER-transduced CD4+ T cells that were phagocytic. For CER104, about 20% of CER104-transduced CD4+ T cells have more than 10% engulfment. For CER117-transduced CD4+ T cells, less than 10% have more than 10% engulfment.

B1: CER104: Chimeric engulfment receptor: Tim4 binding, Tim4 transmembrane, TLR8 and DAP12 signaling; SEQ ID NO: 139 (protein)
chain: MSKGLLLLWLVTELWWLYLTPAASEDTIIGFLGQPVTLPCHYLSWSQSRNSMCWGKGSCPNSKCNAELLRTDGTRIISRKSTKYTLLGKVQFGEVSLTISNTNRGDSGVYCCRIEVPGWFNDVKKNVRLELRRATTTKKPTTTTRPTTTPYVTTTTPELLPTTVMTTSVLPTTTPPQTLATTAFSTAVTTCPSTTPGSFSQETTKGSAFTTESETLPASNHSQRSMMTISTDIAVLRPTGSNPGILPSTSQLTTQKTTLTTSESLQKTTKSHQINSRQTILIIACCVGFVLMVLLFLAFLHHLFYWDVWFIYNVCLAKVKGYRSLSTSQTFYDAYISYDTKDASVTDWVINELRYHLEESRDKNVLLCLEERDWDPGLAIIDNLMQSINQSKKTVFVLTKKYAKSWNFKTAFYLALQRLMDENMDVIIFILLEPVLQHSQYLRLRQRICKSSILQWPDNPKAEGLFWQTLRNVVLTENDSRYNNMYVDSIKQYYFLGRLVPRGRGAAEAATRKQRITETESPYQELQGQRSDVYSDLNTQRPYYK
modifications: CER104, amino acids 1-22 are signal peptide
number of SCC152 cells in time lapse imaging [1]: decreasing in numbers over time
proportion of CER-transduced CD4+ T cells having more than 10% engulfment [2]: about 20%

B2: CER117: Chimeric engulfment receptor: Tim4 binding, Tim4 transmembrane, TLR8 and TRAF6 signaling; SEQ ID NO: 153 (protein)
chain: MSKGLLLLWLVTELWWLYLTPAASEDTIIGFLGQPVTLPCHYLSWSQSRNSMCWGKGSCPNSKCNAELLRTDGTRIISRKSTKYTLLGKVQFGEVSLTISNTNRGDSGVYCCRIEVPGWFNDVKKNVRLELRRATTTKKPTTTTRPTTTPYVTTTTPELLPTTVMTTSVLPTTTPPQTLATTAFSTAVTTCPSTTPGSFSQETTKGSAFTTESETLPASNHSQRSMMTISTDIAVLRPTGSNPGILPSTSQLTTQKTTLTTSESLQKTTKSHQINSRQTILIIACCVGFVLMVLLFLAFLHHLFYWDVWFIYNVCLAKVKGYRSLSTSQTFYDAYISYDTKDASVTDWVINELRYHLEESRDKNVLLCLEERDWDPGLAIIDNLMQSINQSKKTVFVLTKKYAKSWNFKTAFYLALQRLMDENMDVIIFILLEPVLQHSQYLRLRQRICKSSILQWPDNPKAEGLFWQTLRNVVLTENDSRYNNMYVDSIKQYMSLLNCENSCGSSQSESDCCVAMASSCSAVTKDDSVGGTASTGNLSSSFMEEIQGYDVEFDPPLESKYECPICLMALREAVQTPCGHRFCKACIIKSIRDAGHKCPVDNEILLENQLFPDNFAKREILSLMVKCPNEGCLHKMELRHLEDHQAHCEFALMDCPQCQRPFQKFHINIHILKDCPRRQVSCDNCAASMAFEDKEIHDQNCPLANVICEYCNTILIREQMPNHYDLDCPTAPIPCTFSTFGCHEKMQRNHLARHLQENTQSHMRMLA
modifications: CER117, amino acids 1-22 are signal peptide
elimination of SCC152 cells, time lapse imaging [1]: enhanced elimination of SCC152 cells
elimination of SCC152 cells (GFP quantification) [1]: nearly complete elimination
proportion of CER-transduced CD4+ T cells having more than 10% engulfment [2]: less than 10%

B3: CER116: Chimeric engulfment receptor: Tim4 binding, Tim4 transmembrane, TRAF6 and TLR8 signaling; SEQ ID NO: 152 (protein)
chain: MSKGLLLLWLVTELWWLYLTPAASEDTIIGFLGQPVTLPCHYLSWSQSRNSMCWGKGSCPNSKCNAELLRTDGTRIISRKSTKYTLLGKVQFGEVSLTISNTNRGDSGVYCCRIEVPGWFNDVKKNVRLELRRATTTKKPTTTTRPTTTPYVTTTTPELLPTTVMTTSVLPTTTPPQTLATTAFSTAVTTCPSTTPGSFSQETTKGSAFTTESETLPASNHSQRSMMTISTDIAVLRPTGSNPGILPSTSQLTTQKTTLTTSESLQKTTKSHQINSRQTILIIACCVGFVLMVLLFLAFLMSLLNCENSCGSSQSESDCCVAMASSCSAVTKDDSVGGTASTGNLSSSFMEEIQGYDVEFDPPLESKYECPICLMALREAVQTPCGHRFCKACIIKSIRDAGHKCPVDNEILLENQLFPDNFAKREILSLMVKCPNEGCLHKMELRHLEDHQAHCEFALMDCPQCQRPFQKFHINIHILKDCPRRQVSCDNCAASMAFEDKEIHDQNCPLANVICEYCNTILIREQMPNHYDLDCPTAPIPCTFSTFGCHEKMQRNHLARHLQENTQSHMRMLAHHLFYWDVWFIYNVCLAKVKGYRSLSTSQTFYDAYISYDTKDASVTDWVINELRYHLEESRDKNVLLCLEERDWDPGLAIIDNLMQSINQSKKTVFVLTKKYAKSWNFKTAFYLALQRLMDENMDVIIFILLEPVLQHSQYLRLRQRICKSSILQWPDNPKAEGLFWQTLRNVVLTENDSRYNNMYVDSIKQY
modifications: CER116, amino acids 1-22 are signal peptide
elimination of SCC152 cells, time lapse imaging [1]: enhanced elimination of SCC152 cells
number of SCC152 cells in time lapse imaging [1]: decreasing in numbers over time
elimination of SCC152 cells (GFP quantification) [1]: nearly complete elimination
